From US20150290319A1 (EMERGENT BIOSOLUTIONS CANADA, published 2015)
Substitutions are numbered along the chain they refer to.

Columns and labels:
[1] = molecular target: T1, Clostridium difficile toxin B (whole toxin B) (Clostridium difficile); assay: cell-based or functional assay
[2] = molecular target: T1, Clostridium difficile toxin B (whole …); assay: BLI (Octet QKe), mAb on SA sensor, toxin B analyte, model 1:1
[3] = molecular target: T1, Clostridium difficile toxin B (whole …); assay: BLI (Octet QKe), mAb on SA sensor, toxin B analyte, model 1:1; head prints KD (nM) but Kdis/Kon gives this number in M
[4] = molecular target: T1, Clostridium difficile toxin B (whole …); assay: BLI (Octet QKe), mAb on AHC sensor, toxin B analyte, model 2:1; head prints KD (nM) but Kdis/Kon gives this number in M
[5] = molecular target: T1, Clostridium difficile toxin B (whole …); assay: BLI (Octet QKe), mAb from CHOK1SV, toxin B; column kdis2 (1/s)
[6] = molecular target: T2, recombinant toxin B fragment 1 (Clostridium difficile, UniProt P18177 1-546); assay: ELISA, coated antigen, antibody at 0.5 ug/ml, OD405 at 15 min
T2 sequence (P18177 1-546 limits assumed): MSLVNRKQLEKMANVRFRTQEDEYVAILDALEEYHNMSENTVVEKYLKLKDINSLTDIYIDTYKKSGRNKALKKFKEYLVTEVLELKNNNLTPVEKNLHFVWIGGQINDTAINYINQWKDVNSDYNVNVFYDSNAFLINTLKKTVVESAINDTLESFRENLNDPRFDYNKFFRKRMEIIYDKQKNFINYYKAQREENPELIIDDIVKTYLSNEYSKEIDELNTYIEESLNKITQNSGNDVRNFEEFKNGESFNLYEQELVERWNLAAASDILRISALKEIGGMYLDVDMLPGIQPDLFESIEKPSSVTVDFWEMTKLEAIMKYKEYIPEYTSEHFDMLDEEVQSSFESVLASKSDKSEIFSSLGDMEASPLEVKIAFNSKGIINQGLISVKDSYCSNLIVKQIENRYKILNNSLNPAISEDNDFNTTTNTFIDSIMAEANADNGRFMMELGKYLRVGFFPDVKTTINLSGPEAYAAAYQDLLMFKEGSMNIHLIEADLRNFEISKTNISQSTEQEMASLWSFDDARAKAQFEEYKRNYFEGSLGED

[7] = molecular target: T1, Clostridium difficile toxin B (whole …); assay: biolayer interferometry (Octet QKe); biotinylated antibody on streptavidin sensor, toxin B 50-0.78 nM
[8] = molecular target: T1, Clostridium difficile toxin B (whole …); assay: BLI (Octet QKe), mAb on SA sensor, toxin B analyte, model 2:1
[9] = molecular target: T1, Clostridium difficile toxin B (whole …); assay: BLI (Octet QKe), mAb on AHC sensor, toxin B analyte, model 2:1
[10] = molecular target: T1, Clostridium difficile toxin B (whole …); assay: cell-based or functional assay; remark: listed apart in the source
[11] = molecular target: T3, recombinant toxin B fragment 4 (Clostridium difficile, UniProt P18177 1777-2366); assay: ELISA, coated antigen, mAb 0.1-1 µg/ml (FIG. 1)
T3 sequence (P18177 1777-2366 limits assumed): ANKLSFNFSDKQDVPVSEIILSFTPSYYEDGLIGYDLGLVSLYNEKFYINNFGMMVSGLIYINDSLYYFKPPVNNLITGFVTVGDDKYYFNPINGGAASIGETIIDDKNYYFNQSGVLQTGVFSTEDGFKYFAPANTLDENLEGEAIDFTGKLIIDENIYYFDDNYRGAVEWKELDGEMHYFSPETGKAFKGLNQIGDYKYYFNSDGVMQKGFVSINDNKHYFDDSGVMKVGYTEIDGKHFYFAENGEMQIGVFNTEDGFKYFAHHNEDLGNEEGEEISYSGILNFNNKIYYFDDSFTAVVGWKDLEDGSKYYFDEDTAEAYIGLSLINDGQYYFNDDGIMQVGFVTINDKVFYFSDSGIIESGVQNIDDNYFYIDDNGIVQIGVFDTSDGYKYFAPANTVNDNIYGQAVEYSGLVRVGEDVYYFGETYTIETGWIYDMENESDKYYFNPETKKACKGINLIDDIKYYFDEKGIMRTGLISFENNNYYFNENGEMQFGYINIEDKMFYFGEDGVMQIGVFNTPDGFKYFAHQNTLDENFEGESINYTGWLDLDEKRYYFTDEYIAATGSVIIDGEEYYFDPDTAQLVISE

bovine serum albumin = molecular target: T4, bovine serum albumin (bovine, UniProt P02769 25-607); assay: Western blot (FIGS. 4-6)
T4 construct: also called BSA; commercial BSA
T4 sequence (P02769 25-607 limits assumed): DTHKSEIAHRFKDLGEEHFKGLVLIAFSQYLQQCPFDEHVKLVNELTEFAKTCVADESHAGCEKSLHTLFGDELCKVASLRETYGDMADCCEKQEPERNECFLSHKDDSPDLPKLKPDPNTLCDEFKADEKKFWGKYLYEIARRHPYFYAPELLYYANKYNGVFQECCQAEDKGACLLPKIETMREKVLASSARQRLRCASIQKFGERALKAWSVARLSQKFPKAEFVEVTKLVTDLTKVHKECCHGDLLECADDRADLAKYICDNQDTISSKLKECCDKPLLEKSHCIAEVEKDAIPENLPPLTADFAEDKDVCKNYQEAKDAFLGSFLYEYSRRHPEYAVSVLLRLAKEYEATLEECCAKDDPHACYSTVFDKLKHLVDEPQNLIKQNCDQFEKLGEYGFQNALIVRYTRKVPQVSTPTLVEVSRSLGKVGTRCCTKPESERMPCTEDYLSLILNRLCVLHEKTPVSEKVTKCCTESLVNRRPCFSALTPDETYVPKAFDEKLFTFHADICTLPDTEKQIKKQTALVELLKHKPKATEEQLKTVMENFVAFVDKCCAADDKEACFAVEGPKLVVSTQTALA

[12] = molecular target: T5, Clostridium difficile toxin A (whole toxin A) (Clostridium difficile, UniProt P16154 1-2710); assay: ELISA on coated whole toxin A (FIG. 1)
T5 construct: mature; also called TcdA
T5 sequence (P16154 whole entry): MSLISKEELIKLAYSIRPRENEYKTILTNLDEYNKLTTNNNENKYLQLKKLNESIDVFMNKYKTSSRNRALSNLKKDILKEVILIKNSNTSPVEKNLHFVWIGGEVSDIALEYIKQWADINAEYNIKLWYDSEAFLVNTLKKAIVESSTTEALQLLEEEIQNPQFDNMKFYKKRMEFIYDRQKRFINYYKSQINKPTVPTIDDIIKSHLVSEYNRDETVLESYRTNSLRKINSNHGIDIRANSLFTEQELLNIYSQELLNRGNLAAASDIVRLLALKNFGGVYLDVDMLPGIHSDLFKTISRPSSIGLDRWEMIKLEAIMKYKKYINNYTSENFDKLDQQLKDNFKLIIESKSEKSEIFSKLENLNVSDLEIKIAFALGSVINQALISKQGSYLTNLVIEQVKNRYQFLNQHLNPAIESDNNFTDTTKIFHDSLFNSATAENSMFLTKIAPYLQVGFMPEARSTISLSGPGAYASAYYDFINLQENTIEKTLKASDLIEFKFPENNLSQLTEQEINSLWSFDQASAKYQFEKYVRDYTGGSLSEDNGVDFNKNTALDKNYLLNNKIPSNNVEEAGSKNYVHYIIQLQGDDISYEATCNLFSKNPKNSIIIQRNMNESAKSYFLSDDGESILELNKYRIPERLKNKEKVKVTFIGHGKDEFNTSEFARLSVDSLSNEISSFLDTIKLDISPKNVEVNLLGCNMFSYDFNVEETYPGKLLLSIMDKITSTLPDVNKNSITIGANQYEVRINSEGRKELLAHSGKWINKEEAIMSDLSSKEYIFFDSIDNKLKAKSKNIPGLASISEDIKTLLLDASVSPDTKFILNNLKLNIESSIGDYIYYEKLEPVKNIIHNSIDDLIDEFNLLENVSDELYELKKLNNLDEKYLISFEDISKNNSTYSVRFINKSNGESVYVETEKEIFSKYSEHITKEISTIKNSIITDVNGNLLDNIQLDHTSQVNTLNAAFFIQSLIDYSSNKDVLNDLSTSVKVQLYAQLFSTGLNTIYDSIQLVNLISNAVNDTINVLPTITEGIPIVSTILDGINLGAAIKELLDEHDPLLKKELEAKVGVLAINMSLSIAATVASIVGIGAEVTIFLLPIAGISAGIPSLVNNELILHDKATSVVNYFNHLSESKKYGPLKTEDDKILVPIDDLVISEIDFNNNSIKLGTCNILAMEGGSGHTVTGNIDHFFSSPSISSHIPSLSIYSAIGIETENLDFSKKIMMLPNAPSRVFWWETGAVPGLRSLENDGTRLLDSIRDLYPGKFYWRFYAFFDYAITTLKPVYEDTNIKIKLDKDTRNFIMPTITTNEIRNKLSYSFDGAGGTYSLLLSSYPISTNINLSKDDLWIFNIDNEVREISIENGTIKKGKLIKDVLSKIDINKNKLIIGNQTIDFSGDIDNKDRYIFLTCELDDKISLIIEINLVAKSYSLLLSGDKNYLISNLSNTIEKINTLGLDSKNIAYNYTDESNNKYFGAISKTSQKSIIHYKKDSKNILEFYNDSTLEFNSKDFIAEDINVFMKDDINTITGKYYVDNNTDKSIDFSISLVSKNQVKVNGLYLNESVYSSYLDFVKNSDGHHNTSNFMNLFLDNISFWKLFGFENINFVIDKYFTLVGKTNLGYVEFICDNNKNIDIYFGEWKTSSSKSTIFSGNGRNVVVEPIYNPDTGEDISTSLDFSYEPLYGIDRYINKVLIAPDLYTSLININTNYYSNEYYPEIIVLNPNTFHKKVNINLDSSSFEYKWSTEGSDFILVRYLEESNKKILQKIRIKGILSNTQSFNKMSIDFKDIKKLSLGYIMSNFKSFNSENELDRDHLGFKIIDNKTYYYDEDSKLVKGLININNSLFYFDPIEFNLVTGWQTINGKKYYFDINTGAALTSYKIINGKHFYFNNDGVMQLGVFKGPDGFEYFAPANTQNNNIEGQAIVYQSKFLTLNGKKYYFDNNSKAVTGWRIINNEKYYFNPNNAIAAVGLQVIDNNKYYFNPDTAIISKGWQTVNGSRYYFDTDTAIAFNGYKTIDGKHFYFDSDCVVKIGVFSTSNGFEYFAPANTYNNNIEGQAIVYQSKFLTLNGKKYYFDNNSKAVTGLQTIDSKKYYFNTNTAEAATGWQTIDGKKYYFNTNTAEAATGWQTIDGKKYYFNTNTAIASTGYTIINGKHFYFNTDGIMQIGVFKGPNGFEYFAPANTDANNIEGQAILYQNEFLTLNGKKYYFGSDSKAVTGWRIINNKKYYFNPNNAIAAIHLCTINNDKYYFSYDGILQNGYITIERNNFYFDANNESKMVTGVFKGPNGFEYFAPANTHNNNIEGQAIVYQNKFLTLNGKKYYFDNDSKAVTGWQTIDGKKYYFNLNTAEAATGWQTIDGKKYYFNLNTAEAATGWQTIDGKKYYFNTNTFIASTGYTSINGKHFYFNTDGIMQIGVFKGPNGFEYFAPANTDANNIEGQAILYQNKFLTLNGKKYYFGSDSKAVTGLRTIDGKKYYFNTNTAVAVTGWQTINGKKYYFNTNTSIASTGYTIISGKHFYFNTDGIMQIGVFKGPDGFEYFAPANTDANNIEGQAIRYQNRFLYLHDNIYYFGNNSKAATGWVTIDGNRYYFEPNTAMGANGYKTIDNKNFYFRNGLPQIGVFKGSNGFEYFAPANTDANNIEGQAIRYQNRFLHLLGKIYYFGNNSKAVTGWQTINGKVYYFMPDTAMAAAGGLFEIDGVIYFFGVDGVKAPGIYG

[13] = molecular target: T2, recombinant toxin B fragment 1; assay: Western blot, 5 ug protein per lane, mAb at 5 ug/ml
[14] = molecular target: T3, recombinant toxin B fragment 4; assay: ELISA, coated antigen, antibody at 0.5 ug/ml, OD405 at 15 min
[15] = molecular target: T2, recombinant toxin B fragment 1; assay: Western blot, 2 ug protein per lane, mAb at 2 ug/ml
[16] = molecular target: T2, recombinant toxin B fragment 1; assay: as above; remark: listed apart in the source
[17] = molecular target: T1, Clostridium difficile toxin B (whole …); assay: BLI (Octet QKe), mAb on SA sensor, toxin B analyte, model 2:1, first of three rows
[18] = molecular target: T1, Clostridium difficile toxin B (whole …); assay: BLI (Octet QKe), mAb on SA sensor, toxin B analyte, model 2:1, third of three rows
[19] = molecular target: T3, recombinant toxin B fragment 4; assay: Western blot, 2 ug protein per lane, mAb at 2 ug/ml
[20] = molecular target: T3, recombinant toxin B fragment 4; assay: Western blot, 3 ug protein per lane, mAb from CHOK1SV at 5 ug/mL

B1: rehuCAN46G19 (antibody, V domains shown)
VH: EVQLVQSGAEVVKPGESVKISCKASGYSFTGYYIHWVKQTPGQSLEWVGRIFPYNGAASYNQNFKGKATLTVDKSTTTAYMELSSLRSEDSAVYFCARWLRVYFDYWGQGTTLTVSS
VL: ENVLTQSPSSMSASVGDRVTMTCSASSSVTYMHWYQQKPGKSPKLWIYETSKLASGVPSRFSGSGSGNDYSLTISSMQPEDVATYYCFQGSGYPFTFGQGTKLEIK
antibody concentration giving 100% neutralization of toxin B on CT-26 cells, mAb from CHO (FIG. 25) [1]: ~0.3 µg/mL | koff [2]: 0.00021 s⁻¹ | kon [2]: 1.36e+06 M⁻¹ s⁻¹ | Kd [3]: 0.154 nM

B2: huCAN46G19 (antibody, V domains shown)
VH: B1 VH with V12K, I20V, T40A, S44G, T76S, S91T, L113V
VL: B1 VL with M11L, M21I, S42A, S59G, D69S, S71T, L72F, M77L, V82I, L103V
notes: also called HuCAN46G19-3-2
Kd [4]: 0.178 nM

B3: rehuCAN46G24 (antibody, V domains shown)
VH: B1 VH with T77S
VL: B1 VL with N2I, A13T, T22S
antibody concentration giving 100% neutralization of toxin B on CT-26 cells, mAb from CHO (FIG. 25) [1]: ~0.3 µg/mL | koff [5]: 1.2e-05 s⁻¹

B4: CAN33G1 (antibody, V domains shown)
VH: EVQLQQSGPDLVKPGASVKISCKASGYSFTGYYMHWVKQSHGKSLEWIGRVNPYNGDTNYNQNFKDKAILTVDKSASTAYMEFRSLTSEDSAVYYCTRSNWENYFDYWGQGSTLTVSS
VL: DIQLTQSSSSFSVSLGDRVTITCKASEDIYNRLAWYQQRPGNAPRLLISGATSLETGIPSRFSGSGSGKEYTLSIASLQTEDFVTYYCQQYWNIPTFGGGTRLEIK
notes: also called murine CAN33G1; CAN33 mAb
binding result [6]: no binding (tested: 0.5 ug/ml) | Kd [7]: 10.9 nM | koff [7]: 0.000591 s⁻¹ | kon [7]: 54400 M⁻¹ s⁻¹

B5: huCAN46G4 (antibody, V domains shown)
VH: EVQLLQSGAEVKKPGSSVKISCKASDYSFTGYYMHWVKQAPGQGLEWIGRIFPYNGAASYNQNFKDKATLTVDKSSSTAYMELHSLRSEDTAVYYCTRWLRVYFDYWGQGTLVTVSS
VL: EKVLTQSPATLSLSPGERATMTCSASSSVSYMHWYQQKPGTSPKLWIYETSKLAFGVPARFSGSGSGNSYSLTISSLEPEDFAVYYCFQGSGYPFTFGQGTRLEIK
koff [8]: 0.000928 s⁻¹ | kon [8]: 590000 M⁻¹ s⁻¹ | koff [9]: 0.000754 s⁻¹ | kon [9]: 2.12e+06 M⁻¹ s⁻¹

B6: rehuCAN46G4 (antibody, V domains shown)
VH: B5 VH with K12V, D26G, V72A, S76T, S77N, H84S, T91S
VL: B5 VL with L13A, A19V, T22S, T41Q, N68T, S69D, L77M, V84T
koff [2]: 0.000235 s⁻¹ | kon [2]: 590000 M⁻¹ s⁻¹ | Kd [3]: 0.399 nM

B7: CAN46G24 (antibody, V domains shown)
VH: EVQLLQSGPELVKPGTSVKISCKASGYSFTGYYIHWVKQTHVKSLEWVGRIFPYNGAASYNQNFKGKATLTVDKSSSTAYMELHSLTSEDSAVYFCARWLRVYFDYWGQGTTLTVSS
VL: EIVLTQSPAIMSTSPGEKVTMSCSASSSVTYMHWYQQKSITSPKLWIYETSKLASGVPGRFSGSGSGNSYSLTISSMEAEDVATYYCFQGSGYPFTFGSGTKLEIK
notes: also called CAN46G24-2-3; murine CAN46G24
Mean EC50, neutralization of TcdB on HT-29 cells (xCELLigence) [10]: 44.2 µg/mL | binding result [11]: binds | binding result (bovine serum albumin): no binding (tested: 2 µg/ml to 5 µg/ml) | Kd [7]: 1.89 nM | koff [7]: 0.00028 s⁻¹ | kon [7]: 149000 M⁻¹ s⁻¹ | binding result [12]: no binding (tested: 0.1 µg/ml to 1 µg/ml) | binding result [13]: no binding (tested: 5 ug/ml)

B8: CAN46G13 (antibody, V domains shown)
VH: B7 VH
VL: B7 VL
notes: also called CAN46G13-1-5; murine CAN46G13
Mean EC50, neutralization of TcdB on HT-29 cells (xCELLigence) [10]: 136 µg/mL | binding result (bovine serum albumin): no binding (tested: 2 µg/ml to 5 µg/ml) | binding result [14]: binds | Kd [7]: 1.17 nM | koff [7]: 0.000149 s⁻¹ | kon [7]: 128000 M⁻¹ s⁻¹ | binding result [12]: no binding (tested: 0.1 µg/ml to 1 µg/ml) | binding result [15]: no binding (tested: 2 ug/ml)

B9: CAN46G4 (antibody, V domains shown)
VH: B7 VH with T16A, G26D, I34M, T40S, V48I, G66D, F95Y, A97T
VL: B7 VL with I2K, T13A, K18E, S22T, T30S, I40S, S55F, I105V
notes: also called CAN46G4-1-2; murine CAN46G4
Mean EC50, neutralization of TcdB on HT-29 cells (xCELLigence) [10]: 142 µg/mL | binding result [11]: binds | binding result (bovine serum albumin): no binding (tested: 2 µg/ml to 5 µg/ml) | Kd [7]: 1.41 nM | koff [7]: 0.000101 s⁻¹ | kon [7]: 71800 M⁻¹ s⁻¹ | binding result [12]: no binding (tested: 0.1 µg/ml to 1 µg/ml) | binding result [16]: no binding (tested: 2 ug/ml)

B10: CAN46G19 (antibody, V domains shown)
VH: B7 VH with S77T
VL: B7 VL with I2N, A9T, T13A, K18E, S22T
notes: also called CAN46G19-3-2; murine CAN46G19
Mean EC50, neutralization of TcdB on HT-29 cells (xCELLigence) [10]: 142 µg/mL | binding result [11]: binds | binding result (bovine serum albumin): no binding (tested: 2 µg/ml to 5 µg/ml) | Kd [7]: 1.27 nM | koff [7]: 0.000145 s⁻¹ | kon [7]: 114000 M⁻¹ s⁻¹ | binding result [12]: no binding (tested: 0.1 µg/ml to 1 µg/ml) | binding result [16]: no binding (tested: 2 ug/ml)

B11: CAN46G13a (antibody, V domains shown)
VH: DVQLQESGPGLVKPSQSLSLTCTVTGYSITSDSAWNWIRQFPGNNLEWMGYISYSGSTSYNPSLKSRISITRDTSKNQFFLQLNSVTTEDTATYYCARRSRVSFYFDYWGQGTTLTVSS
VL: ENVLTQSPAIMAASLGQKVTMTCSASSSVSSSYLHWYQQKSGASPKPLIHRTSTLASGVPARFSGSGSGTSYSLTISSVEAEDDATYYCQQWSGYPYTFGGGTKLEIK
notes: also called CAN46G13-1-8; murine CAN46G13a
koff [17]: 0.00357 s⁻¹ | kon [17]: 678000 M⁻¹ s⁻¹ | binding result (bovine serum albumin): no binding (tested: 2 µg/ml to 5 µg/ml) | Kd [7]: 8.57 nM | koff [7]: 0.00693 s⁻¹ | kon [7]: 808000 M⁻¹ s⁻¹ | binding result [12]: no binding (tested: 0.1 µg/ml to 1 µg/ml) | koff [18]: 0.00598 s⁻¹ | kon [18]: 73700 M⁻¹ s⁻¹ | binding result [19]: no binding (tested: 2 ug/ml)

B12: huCAN46G13a (antibody, V domains shown)
VH: B11 VH with D1Q, S17T, F80S, Q82K, L83V, T88A, E89A, T93V, T114L, L115V
VL: ENVLTQSPSSLSASVGDRVTMTCSASSSVSSSYLHWYQQKPGKSPKPLIHRTSTLASGVPSRFSGSGSGTSYSLTISSLQPEDIATYYCQQWSGYPYTFGGGTKVEIK
binding result [20]: no binding (tested: 5 ug/mL) | koff [2]: 0.000234 s⁻¹ | kon [2]: 552000 M⁻¹ s⁻¹ | Kd [3]: 0.423 nM | koff [5]: < 1e-07 s⁻¹
